Measurements published in PMC9642902 (2022).

B1: potato ATG8-2.2 (StATG8-2.2), protein for ITC (natural protein)
chain: MAKSSFKLEHPLERRQAEAARIREKYPDRIPVIVEKAERSDIPDIDKKKYLVPADLTVGQFVYVVRKRIKLSAEKAIFIFVKNILPPTAAMMSAIYEEHKDEDGFLYMTYSGENTFG

Key:
Test in all cases: ITC
[1] = molecular target: PmPexRD54 AIM peptide (Phytophthora mirabilis)
[2] = molecular target: MjATG8-I, recombinant protein for ITC (Mirabilis jalapa)
[3] = molecular target: MjATG8-III, recombinant protein for ITC (Mirabilis jalapa)

Binder | Kd [1] | Kd [2] | Kd [3]
B1 | 4200 µM | – | –
KPLDFDWEIV [PiPexRD54 AIM peptide] | – | 0.21 µM | 0.12 µM
